Test results published in US20110300138A1 (published 2011).

Legend:
Assay in all cases: cell-based or functional assay
[1] = molecular target: TSHR with Asp203 mutated to Ala expressed in CHO cells (human) (UniProt P16473)
[2] = molecular target: TSHR with Asp151 mutated to Ala, expressed in CHO cells (human) (UniProt P16473)
[3] = molecular target: TSHR with Arg80 mutated to Ala expressed in CHO cells (human) (UniProt P16473)
[4] = molecular target: TSHR with Arg109 mutated to Ala, expressed in CHO cells (human) (UniProt P16473)
[5] = molecular target: TSHR with Thr104 mutated to Ala (expressed in CHO cells) (human) (UniProt P16473)
[6] = molecular target: TSHR with Lys183 mutated to Ala expressed in CHO cells (human) (UniProt P16473)
[7] = molecular target: TSHR with Asp43 mutated to Ala, expressed in CHO cells (human) (UniProt P16473)
Sequence of TSHR with Asp43 mutated to Ala, expressed in CHO cells (human) (P16473 other isoform, or with tags, fused parts or gaps, change not shown): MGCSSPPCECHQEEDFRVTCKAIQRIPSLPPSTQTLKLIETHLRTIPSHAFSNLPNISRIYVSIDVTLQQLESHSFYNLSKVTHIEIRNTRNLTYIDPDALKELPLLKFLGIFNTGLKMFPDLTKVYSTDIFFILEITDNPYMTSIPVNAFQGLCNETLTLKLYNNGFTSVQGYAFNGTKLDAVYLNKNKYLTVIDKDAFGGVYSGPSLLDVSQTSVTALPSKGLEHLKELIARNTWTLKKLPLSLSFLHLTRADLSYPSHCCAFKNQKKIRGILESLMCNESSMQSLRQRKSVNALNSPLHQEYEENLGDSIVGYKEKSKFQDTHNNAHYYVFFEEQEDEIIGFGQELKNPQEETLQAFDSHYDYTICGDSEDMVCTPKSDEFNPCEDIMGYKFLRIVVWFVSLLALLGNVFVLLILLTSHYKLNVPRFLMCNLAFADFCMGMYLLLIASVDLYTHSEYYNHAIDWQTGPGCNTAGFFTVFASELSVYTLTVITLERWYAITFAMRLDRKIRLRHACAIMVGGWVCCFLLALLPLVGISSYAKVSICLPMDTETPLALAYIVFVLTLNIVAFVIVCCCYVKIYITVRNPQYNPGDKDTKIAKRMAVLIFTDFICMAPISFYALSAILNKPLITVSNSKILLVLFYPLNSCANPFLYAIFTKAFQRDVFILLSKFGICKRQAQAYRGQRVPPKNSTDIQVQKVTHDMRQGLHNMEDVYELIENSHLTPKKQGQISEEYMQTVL

Sequence of TSHR with Arg80 mutated to Ala expressed in CHO cells (human) (P16473 other isoform, or with tags, fused parts or gaps, change not shown): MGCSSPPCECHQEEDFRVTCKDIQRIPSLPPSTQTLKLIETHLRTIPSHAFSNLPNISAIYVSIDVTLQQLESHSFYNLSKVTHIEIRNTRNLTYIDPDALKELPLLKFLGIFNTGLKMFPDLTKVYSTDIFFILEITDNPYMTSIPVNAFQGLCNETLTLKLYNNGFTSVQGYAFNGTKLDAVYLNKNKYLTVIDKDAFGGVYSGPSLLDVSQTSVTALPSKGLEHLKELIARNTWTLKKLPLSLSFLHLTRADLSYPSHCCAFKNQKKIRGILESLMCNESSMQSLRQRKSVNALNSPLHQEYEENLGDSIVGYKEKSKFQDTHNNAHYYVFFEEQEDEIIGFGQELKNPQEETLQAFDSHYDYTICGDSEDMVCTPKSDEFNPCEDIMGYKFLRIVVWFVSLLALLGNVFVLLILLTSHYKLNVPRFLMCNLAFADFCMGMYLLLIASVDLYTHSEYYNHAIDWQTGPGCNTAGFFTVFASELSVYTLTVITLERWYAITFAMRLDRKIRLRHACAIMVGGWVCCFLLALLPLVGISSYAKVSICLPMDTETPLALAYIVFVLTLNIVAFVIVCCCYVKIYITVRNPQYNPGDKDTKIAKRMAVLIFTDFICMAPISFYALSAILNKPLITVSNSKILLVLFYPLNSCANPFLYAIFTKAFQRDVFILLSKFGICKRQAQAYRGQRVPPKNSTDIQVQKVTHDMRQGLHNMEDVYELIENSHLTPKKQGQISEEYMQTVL
Sequence of TSHR with Lys183 mutated to Ala expressed in CHO cells (human) (P16473 other isoform, or with tags, fused parts or gaps, change not shown): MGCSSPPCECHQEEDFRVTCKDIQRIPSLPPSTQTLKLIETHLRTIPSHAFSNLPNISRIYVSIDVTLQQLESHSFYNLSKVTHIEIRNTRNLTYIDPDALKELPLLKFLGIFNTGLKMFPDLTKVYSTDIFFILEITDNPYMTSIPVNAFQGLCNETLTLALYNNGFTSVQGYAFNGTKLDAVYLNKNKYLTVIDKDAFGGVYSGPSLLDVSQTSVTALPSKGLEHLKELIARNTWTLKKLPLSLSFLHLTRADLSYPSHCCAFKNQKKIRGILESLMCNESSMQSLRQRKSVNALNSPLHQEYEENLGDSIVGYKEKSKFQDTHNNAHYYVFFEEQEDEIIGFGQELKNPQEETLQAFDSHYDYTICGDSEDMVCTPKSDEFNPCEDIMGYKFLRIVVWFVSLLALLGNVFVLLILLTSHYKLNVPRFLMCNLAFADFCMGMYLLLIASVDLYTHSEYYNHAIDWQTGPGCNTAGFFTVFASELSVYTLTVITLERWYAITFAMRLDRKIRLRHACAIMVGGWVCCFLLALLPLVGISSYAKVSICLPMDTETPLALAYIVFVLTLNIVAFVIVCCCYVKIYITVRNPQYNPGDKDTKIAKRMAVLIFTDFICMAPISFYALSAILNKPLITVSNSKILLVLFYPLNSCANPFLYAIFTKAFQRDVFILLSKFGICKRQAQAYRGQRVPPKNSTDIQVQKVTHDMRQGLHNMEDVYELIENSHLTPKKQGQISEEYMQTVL
Sequence of TSHR with Arg109 mutated to Ala, expressed in CHO cells (human) (P16473 other isoform, or with tags, fused parts or gaps, change not shown): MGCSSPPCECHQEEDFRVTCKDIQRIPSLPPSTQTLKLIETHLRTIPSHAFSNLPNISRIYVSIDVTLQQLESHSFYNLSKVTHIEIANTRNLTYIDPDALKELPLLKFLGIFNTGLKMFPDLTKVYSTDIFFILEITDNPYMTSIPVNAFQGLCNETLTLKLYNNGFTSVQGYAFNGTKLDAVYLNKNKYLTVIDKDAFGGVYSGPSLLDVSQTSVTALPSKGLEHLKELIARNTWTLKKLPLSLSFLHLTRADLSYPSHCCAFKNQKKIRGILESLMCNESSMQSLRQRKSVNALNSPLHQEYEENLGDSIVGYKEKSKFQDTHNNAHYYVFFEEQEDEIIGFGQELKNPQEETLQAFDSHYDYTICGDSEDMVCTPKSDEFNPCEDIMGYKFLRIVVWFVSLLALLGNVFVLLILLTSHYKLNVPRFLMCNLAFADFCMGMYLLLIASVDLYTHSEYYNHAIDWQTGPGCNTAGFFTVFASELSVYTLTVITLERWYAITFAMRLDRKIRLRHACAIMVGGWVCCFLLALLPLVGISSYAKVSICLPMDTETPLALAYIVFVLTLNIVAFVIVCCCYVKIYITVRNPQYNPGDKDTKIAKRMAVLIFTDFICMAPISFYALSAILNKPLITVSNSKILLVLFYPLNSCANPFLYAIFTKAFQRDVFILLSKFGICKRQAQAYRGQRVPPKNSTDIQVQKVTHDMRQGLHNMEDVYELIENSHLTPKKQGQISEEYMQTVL
Sequence of TSHR with Asp203 mutated to Ala expressed in CHO cells (human) (P16473 other isoform, or with tags, fused parts or gaps, change not shown): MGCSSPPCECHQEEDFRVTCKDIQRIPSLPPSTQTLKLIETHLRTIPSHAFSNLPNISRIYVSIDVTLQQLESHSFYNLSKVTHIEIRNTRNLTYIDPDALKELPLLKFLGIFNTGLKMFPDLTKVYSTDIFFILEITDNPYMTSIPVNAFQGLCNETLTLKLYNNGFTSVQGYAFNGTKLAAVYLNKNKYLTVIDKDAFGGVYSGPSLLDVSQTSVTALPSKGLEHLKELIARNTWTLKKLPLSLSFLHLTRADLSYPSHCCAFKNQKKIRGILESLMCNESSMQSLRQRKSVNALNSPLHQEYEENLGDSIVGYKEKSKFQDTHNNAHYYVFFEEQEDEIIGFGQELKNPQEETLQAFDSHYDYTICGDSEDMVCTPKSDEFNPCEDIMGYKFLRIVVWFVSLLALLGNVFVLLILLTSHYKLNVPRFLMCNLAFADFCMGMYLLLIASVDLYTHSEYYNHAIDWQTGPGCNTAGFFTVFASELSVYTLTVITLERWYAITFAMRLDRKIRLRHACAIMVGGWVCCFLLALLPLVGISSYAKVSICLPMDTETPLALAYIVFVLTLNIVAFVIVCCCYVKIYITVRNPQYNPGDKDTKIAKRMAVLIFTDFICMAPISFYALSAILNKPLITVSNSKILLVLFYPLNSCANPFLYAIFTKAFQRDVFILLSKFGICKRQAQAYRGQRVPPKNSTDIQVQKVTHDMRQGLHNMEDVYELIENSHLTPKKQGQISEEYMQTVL
Sequence of TSHR with Thr104 mutated to Ala (expressed in CHO cells) (human) (P16473 other isoform, or with tags, fused parts or gaps, change not shown): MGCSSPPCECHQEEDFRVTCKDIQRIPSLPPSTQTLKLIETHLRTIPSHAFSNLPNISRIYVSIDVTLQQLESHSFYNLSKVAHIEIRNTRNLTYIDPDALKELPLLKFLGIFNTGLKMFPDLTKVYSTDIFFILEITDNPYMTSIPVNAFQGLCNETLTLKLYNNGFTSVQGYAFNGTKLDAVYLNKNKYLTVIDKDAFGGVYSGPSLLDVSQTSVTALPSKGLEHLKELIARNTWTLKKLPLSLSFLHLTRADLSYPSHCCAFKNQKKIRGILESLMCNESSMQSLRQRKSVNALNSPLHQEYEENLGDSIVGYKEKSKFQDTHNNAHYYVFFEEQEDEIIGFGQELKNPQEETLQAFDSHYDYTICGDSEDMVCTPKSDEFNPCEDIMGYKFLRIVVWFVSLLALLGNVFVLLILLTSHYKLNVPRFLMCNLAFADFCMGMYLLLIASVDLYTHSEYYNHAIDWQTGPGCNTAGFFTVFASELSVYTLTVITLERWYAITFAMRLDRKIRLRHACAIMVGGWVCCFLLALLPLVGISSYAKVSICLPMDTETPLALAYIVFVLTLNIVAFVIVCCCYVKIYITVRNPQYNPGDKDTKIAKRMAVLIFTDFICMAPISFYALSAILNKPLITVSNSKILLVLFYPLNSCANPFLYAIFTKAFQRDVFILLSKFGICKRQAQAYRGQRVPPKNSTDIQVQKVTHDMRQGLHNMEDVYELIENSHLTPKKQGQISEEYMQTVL

Cyclic AMP produced (pmol/mL), 0.01 ng/mL TSH [1]: 5.3 pmol/mL
Cyclic AMP produced (pmol/mL), 0.03 ng/mL TSH [1]: 7.13 pmol/mL
Cyclic AMP produced (pmol/mL), 0.1 ng/mL TSH [1]: 13 pmol/mL
Cyclic AMP produced (pmol/mL), 0.3 ng/mL TSH [1]: 33.8 pmol/mL
Cyclic AMP produced (pmol/mL), 1 ng/mL TSH [1]: 58.6 pmol/mL
Cyclic AMP produced (pmol/mL), 3 ng/mL TSH [1]: 69.3 pmol/mL
Mutated/Wild type (%) of cyclic AMP produced, 0.01 ng/mL TSH [1]: 231%
Mutated/Wild type (%) of cyclic AMP produced, 0.03 ng/mL TSH [1]: 200%
Mutated/Wild type (%) of cyclic AMP produced, 0.1 ng/mL TSH [1]: 154%
Mutated/Wild type (%) of cyclic AMP produced, 0.3 ng/mL TSH [1]: 128%
Mutated/Wild type (%) of cyclic AMP produced, 1 ng/mL TSH [1]: 89%
Mutated/Wild type (%) of cyclic AMP produced, 3 ng/mL TSH [1]: 90%
% inhibition of TSH stimulation, mutated TSHR; TSH (2) (run at the end of assay) [2]: 9%
Mutated/Wild type (%) of cyclic AMP produced, TSH 0.01 ng/mL [2]: 209%
Mutated/Wild type (%) of cyclic AMP produced, TSH 0.03 ng/mL [2]: 149%
Mutated/Wild type (%) of cyclic AMP produced, TSH 0.1 ng/mL [2]: 99%
Mutated/Wild type (%) of cyclic AMP produced, TSH 0.3 ng/mL [2]: 80%
Mutated/Wild type (%) of cyclic AMP produced, TSH 1 ng/mL [2]: 66%
Mutated/wild type (%) of cyclic AMP produced; TSH 3 ng/mL [2]: 68%
Mutated/wild type (%) of cyclic AMP produced; test sample: TSH (3 ng/mL) [2]: 62%
Mutated/wild type (%) of cyclic AMP produced; test sample: TSH (2) (3 ng/mL, run at the end of assay) [2]: 44%
% inhibition of TSH stimulation; TSH (2) [3]: 16%
Cyclic AMP produced; TSH 3 ng/mL [3]: 105 pmol/mL
Cyclic AMP produced; TSH (2) [3]: 88.2 pmol/mL
Mutated/wild type (%) of cyclic AMP produced; TSH 3 ng/mL [3]: 124%
Mutated/wild type (%) of cyclic AMP produced; TSH (2) [3]: 94%
% inhibition of TSH stimulation; TSH (2) control; Experiment 1 [4]: 0%
% inhibition of TSH stimulation; TSH (2) control; Experiment 2 [4]: 6%
Cyclic AMP produced; TSH 3 ng/mL; Experiment 1 [4]: 32.9 pmol/mL
Cyclic AMP produced; TSH 3 ng/mL; Experiment 2 [4]: 53.4 pmol/mL
Cyclic AMP produced; TSH (2); Experiment 1 [4]: 33.3 pmol/mL
Cyclic AMP produced; TSH (2); Experiment 2 [4]: 50.4 pmol/mL
Mutated/wild type (%) of cyclic AMP produced; TSH 3 ng/mL; Experiment 1 [4]: 49%
Mutated/wild type (%) of cyclic AMP produced; TSH 3 ng/mL; Experiment 2 [4]: 88%
Mutated/wild type (%) of cyclic AMP produced; TSH (2); Experiment 1 [4]: 49%
Mutated/wild type (%) of cyclic AMP produced; TSH (2); Experiment 2 [4]: 74%
% inhibition of TSH stimulation; TSH (2), run at the end of assay [5]: 10%
Cyclic AMP produced (pmol/mL), TSH 0.01 ng/mL, Experiment 1 [5]: 2.58 pmol/mL
Cyclic AMP produced (pmol/mL), TSH 0.01 ng/mL, Experiment 2 [5]: 4.28 pmol/mL
Cyclic AMP produced (pmol/mL), TSH 0.03 ng/mL, Experiment 1 [5]: 3.2 pmol/mL
Cyclic AMP produced (pmol/mL), TSH 0.03 ng/mL, Experiment 2 [5]: 5.71 pmol/mL
Cyclic AMP produced (pmol/mL), TSH 0.1 ng/mL, Experiment 1 [5]: 3.64 pmol/mL
Cyclic AMP produced (pmol/mL), TSH 0.1 ng/mL, Experiment 2 [5]: 9.8 pmol/mL
Cyclic AMP produced (pmol/mL), TSH 0.3 ng/mL, Experiment 1 [5]: 5.38 pmol/mL
Cyclic AMP produced (pmol/mL), TSH 0.3 ng/mL, Experiment 2 [5]: 35.7 pmol/mL
Cyclic AMP produced (pmol/mL), TSH 1 ng/mL, Experiment 1 [5]: 15.8 pmol/mL
Cyclic AMP produced (pmol/mL), TSH 1 ng/mL, Experiment 2 [5]: 57.1 pmol/mL
Cyclic AMP produced (pmol/mL), TSH 3 ng/mL, Experiment 1 [5]: 34.5 pmol/mL
Cyclic AMP produced (pmol/mL), TSH 3 ng/mL, Experiment 2 [5]: 58.5 pmol/mL
Cyclic AMP produced; TSH 3 ng/mL alone [5]: 63.7 pmol/mL
Cyclic AMP produced; TSH (2) 3 ng/mL, run at the end of assay [5]: 57 pmol/mL
Mutated/Wild type (%), TSH 0.01 ng/mL, Experiment 1 [5]: 188%
Mutated/Wild type (%), TSH 0.01 ng/mL, Experiment 2 [5]: 204%
Mutated/Wild type (%), TSH 0.03 ng/mL, Experiment 1 [5]: 203%
Mutated/Wild type (%), TSH 0.03 ng/mL, Experiment 2 [5]: 127%
Mutated/Wild type (%), TSH 0.1 ng/mL, Experiment 1 [5]: 199%
Mutated/Wild type (%), TSH 0.1 ng/mL, Experiment 2 [5]: 95%
Mutated/Wild type (%), TSH 0.3 ng/mL, Experiment 1 [5]: 168%
Mutated/Wild type (%), TSH 0.3 ng/mL, Experiment 2 [5]: 100%
Mutated/Wild type (%), TSH 1 ng/mL, Experiment 1 [5]: 99%
Mutated/Wild type (%), TSH 1 ng/mL, Experiment 2 [5]: 79%
Mutated/Wild type (%), TSH 3 ng/mL, Experiment 1 [5]: 72%
Mutated/Wild type (%), TSH 3 ng/mL, Experiment 2 [5]: 74%
Mutated/wild type (%) of cyclic AMP produced; TSH 3 ng/mL alone [5]: 76%
Mutated/wild type (%) of cyclic AMP produced; TSH (2) 3 ng/mL, run at the end of assay [5]: 68%
Cyclic AMP produced (pmol/mL), 0.01 ng/mL TSH, Experiment 1 [6]: 4.95 pmol/mL
Cyclic AMP produced (pmol/mL), 0.01 ng/mL TSH, Experiment 2 [6]: 3.73 pmol/mL
Cyclic AMP produced (pmol/mL), 0.03 ng/mL TSH, Experiment 1 [6]: 6.94 pmol/mL
Cyclic AMP produced (pmol/mL), 0.03 ng/mL TSH, Experiment 2 [6]: 5.37 pmol/mL
Cyclic AMP produced (pmol/mL), 0.1 ng/mL TSH, Experiment 1 [6]: 13 pmol/mL
Cyclic AMP produced (pmol/mL), 0.1 ng/mL TSH, Experiment 2 [6]: 10.1 pmol/mL
Cyclic AMP produced (pmol/mL), 0.3 ng/mL TSH, Experiment 1 [6]: 35 pmol/mL
Cyclic AMP produced (pmol/mL), 0.3 ng/mL TSH, Experiment 2 [6]: 27.8 pmol/mL
Cyclic AMP produced (pmol/mL), 1 ng/mL TSH, Experiment 1 [6]: 57.2 pmol/mL
Cyclic AMP produced (pmol/mL), 1 ng/mL TSH, Experiment 2 [6]: 55.8 pmol/mL
Cyclic AMP produced (pmol/mL), 3 ng/mL TSH, Experiment 1 [6]: 69.2 pmol/mL
Cyclic AMP produced (pmol/mL), 3 ng/mL TSH, Experiment 2 [6]: 72.2 pmol/mL
Mutated/Wild type (%) of cyclic AMP produced, 0.01 ng/mL TSH, Experiment 1 [6]: 275%
Mutated/Wild type (%) of cyclic AMP produced, 0.01 ng/mL TSH, Experiment 2 [6]: 287%
Mutated/Wild type (%) of cyclic AMP produced, 0.03 ng/mL TSH, Experiment 1 [6]: 177%
Mutated/Wild type (%) of cyclic AMP produced, 0.03 ng/mL TSH, Experiment 2 [6]: 179%
Mutated/Wild type (%) of cyclic AMP produced, 0.1 ng/mL TSH, Experiment 1 [6]: 146%
Mutated/Wild type (%) of cyclic AMP produced, 0.1 ng/mL TSH, Experiment 2 [6]: 151%
Mutated/Wild type (%) of cyclic AMP produced, 0.3 ng/mL TSH, Experiment 1 [6]: 106%
Mutated/Wild type (%) of cyclic AMP produced, 0.3 ng/mL TSH, Experiment 2 [6]: 106%
Mutated/Wild type (%) of cyclic AMP produced, 1 ng/mL TSH, Experiment 1 [6]: 75%
Mutated/Wild type (%) of cyclic AMP produced, 1 ng/mL TSH, Experiment 2 [6]: 82%
Mutated/Wild type (%) of cyclic AMP produced, 3 ng/mL TSH, Experiment 1 [6]: 80%
Mutated/Wild type (%) of cyclic AMP produced, 3 ng/mL TSH, Experiment 2 [6]: 103%
% inhibition of TSH stimulation, TSH (2) run at the end of assay, mutated TSHR [7]: 0%
Substance: TSH (ligand)
